Results reported in article PMC8766458, “Deciphering the mechanism of processive ssDNA digestion by the Dna2-RPA ensemble” (Nature Communications, 2022).
Numbering of substitutions follows the chain as printed. In names and notes the source's numbering stands.

B1: Rfa1-N-DBD-A/B (Rfa1–NAB, amino acid 1–435) (domain or fragment, yeast (S. cerevisiae), UniProt P22336 1-435, looked up)
chain: MSSVQLSRGDFHSIFTNKQRYDNPTGGVYQVYNTRKSDGANSNRKNLIMISDGIYHMKALLRNQAASKFQSMELQRGDIIRVIIAEPAIVRERKKYVLLVDDFELVQSRADMVNQTSTFLDNYFSEHPNETLKDEDITDSGNVANQTNASNAGVPDMLHSNSNLNANERKFANENPNSQKTRPIFAIEQLSPYQNVWTIKARVSYKGEIKTWHNQRGDGKLFNVNFLDTSGEIRATAFNDFATKFNEILQEGKVYYVSKAKLQPAKPQFTNLTHPYELNLDRDTVIEECFDESNVPKTHFNFIKLDAIQNQEVNSNVDVLGIIQTINPHFELTSRAGKKFDRRDITIVDDSGFSISVGLWNQQALDFNLPEGSVAAIKGVRVTDFGGKSLSMGFSSTLIPNPEIPEAYALKGWYDSKGRNANFITLKQEPGMGGQ
notes: Rfa1 of yeast RPA, residues 1-435 (N, DBD-A and DBD-B domains); The 6xHis tag can optionally be removed by TEV protease; also called NAB polypeptide; pHis–Rfa1 1–435; source: E. coli BL21 codon plus, purified (Ni-NTA, Superdex 200)
B2: rfa1–NAB–K45E (pHis-Rfa1 1-435 K45E) (domain or fragment, yeast (S. cerevisiae), UniProt P22336 1-435, looked up)
chain: B1 chain with K45E
notes: Rfa1 of yeast RPA, residues 1-435, charge reversal in the basic cleft of Rfa1-N; also called rfa1–t11; rfa1–K45E; source: E. coli BL21 codon plus, purified (Ni-NTA, Superdex 200)
B3: Dna2 (wild type, FLAG-His6-tagged) (enzyme, S. cerevisiae, UniProt P38859 1-1522, looked up)
chain: MPGTPQKNKRSASISVSPAKKTEEKEIIQNDSKAILSKQTKRKKKYAFAPINNLNGKNTKVSNASVLKSIAVSQVRNTSRTKDINKAVSKSVKQLPNSQVKPKREMSNLSRHHDFTQDEDGPMEEVIWKYSPLQRDMSDKTTSAAEYSDDYEDVQNPSSTPIVPNRLKTVLSFTNIQVPNADVNQLIQENGNEQVRPKPAEISTRESLRNIDDILDDIEGDLTIKPTITKFSDLPSSPIKAPNVEKKAEVNAEEVDKMDSTGDSNDGDDSLIDILTQKYVEKRKSESQITIQGNTNQKSGAQESCGKNDNTKSRGEIEDHENVDNQAKTGNAFYENEEDSNCQRIKKNEKIEYNSSDEFSDDSLIELLNETQTQVEPNTIEQDLDKVEKMVSDDLRIATDSTLSAYALRAKSGAPRDGVVRLVIVSLRSVELPKIGTQKILECIDGKGEQSSVVVRHPWVYLEFEVGDVIHIIEGKNIENKRLLSDDKNPKTQLANDNLLVLNPDVLFSATSVGSSVGCLRRSILQMQFQDPRGEPSLVMTLGNIVHELLQDSIKYKLSHNKISMEIIIQKLDSLLETYSFSIIICNEEIQYVKELVMKEHAENILYFVNKFVSKSNYGCYTSISGTRRTQPISISNVIDIEENIWSPIYGLKGFLDATVEANVENNKKHIVPLEVKTGKSRSVSYEVQGLIYTLLLNDRYEIPIEFFLLYFTRDKNMTKFPSVLHSIKHILMSRNRMSMNFKHQLQEVFGQAQSRFELPPLLRDSSCDSCFIKESCMVLNKLLEDGTPEESGLVEGEFEILTNHLSQNLANYKEFFTKYNDLITKEESSITCVNKELFLLDGSTRESRSGRCLSGLVVSEVVEHEKTEGAYIYCFSRRRNDNNSQSMLSSQIAANDFVIISDEEGHFCLCQGRVQFINPAKIGISVKRKLLNNRLLDKEKGVTTIQSVVESELEQSSLIATQNLVTYRIDKNDIQQSLSLARFNLLSLFLPAVSPGVDIVDERSKLCRKTKRSDGGNEILRSLLVDNRAPKFRDANDDPVIPYKLSKDTTLNLNQKEAIDKVMRAEDYALILGMPGTGKTTVIAEIIKILVSEGKRVLLTSYTHSAVDNILIKLRNTNISIMRLGMKHKVHPDTQKYVPNYASVKSYNDYLSKINSTSVVATTCLGINDILFTLNEKDFDYVILDEASQISMPVALGPLRYGNRFIMVGDHYQLPPLVKNDAARLGGLEESLFKTFCEKHPESVAELTLQYRMCGDIVTLSNFLIYDNKLKCGNNEVFAQSLELPMPEALSRYRNESANSKQWLEDILEPTRKVVFLNYDNCPDIIEQSEKDNITNHGEAELTLQCVEGMLLSGVPCEDIGVMTLYRAQLRLLKKIFNKNVYDGLEILTADQFQGRDKKCIIISMVRRNSQLNGGALLKELRRVNVAMTRAKSKLIIIGSKSTIGSVPEIKSFVNLLEERNWVYTMCKDALYKYKFPDRSNAIDEARKGCGKRTGAKPITSKSKFVSDKPIIKEILQEYES
notes: Dna2 nuclease-helicase, Saccharomyces cerevisiae, wild type; Wild-type protein; In DNA Curtains it was labelled with anti-FLAG quantum dots; in MST with the His-tag labelling kit RED-tris-NTA; also called wild-type Dna2; (His)6-tagged Dna2; source: over-expressed in yeast, purified (Ni-NTA, anti-FLAG-M2 resin)
B4: dna2-AC (dna2-D357A,E358A,D361A,D362A,E366A), FLAG-His6-tagged (enzyme, S. cerevisiae, UniProt P38859 1-1522, looked up)
chain: B3 chain with D357A, E358A, D361A, D362A, E366A
notes: Dna2, Saccharomyces cerevisiae, with all acidic residues of the second acidic patch (amino acid 355-366) changed to alanine; source: over-expressed in yeast, purified (Ni-NTA, anti-FLAG-M2 resin)

Assays:
Conditions in all cases: both partners purified
[1] = target: T1, dna2-D657A (nuclease-dead Dna2) (S. cerevisiae, UniProt P38859 1-1522, D657A); assay: native gel or EMSA; ternary complex of dna2-D657A variants (20 nM), Rfa1 truncations or mutants (20 nM) and 5 nM dT(20) ssDNA; 150 mM KCl, 30 °C, 4% native gel
T1 construct: Dna2, Saccharomyces cerevisiae, nuclease-dead version; Purified as the other Dna2 variants; FLAG tag used for quantum-dot labelling in DNA Curtains; also called dna2-D657A mutant; source: over-expressed in yeast, purified (Ni-NTA, anti-FLAG-M2 resin)

[2] = target: T2, RPA–Y193A–GFP (RPA complex harboring rfa1–Y193A) (yeast (S. cerevisiae), UniProt P22336 1-621; P26754 1-273; P26755 1-122, Y193A); assay: single-molecule DNA Curtains (TIRF microscopy); quantum-dot labelled Dna2 variants on ssDNA coated with RPA–GFP variants; NaCl concentration of these results not told in the text (conditions in Supplementary Table 1)
T2 construct: Rfa1, large subunit of yeast RPA, with Y193A in the linker between Rfa1-N and DBD-A; Rfa2, middle subunit of yeast RPA; Rfa3, small subunit of yeast RPA; GFP is fused to one subunit and kept in the assay; preparation not described; also called RPA complex harboring rfa1–Y193A mutant; copies: + +

RPA–GFP = target: T3, RPA–GFP (yeast (S. cerevisiae), UniProt P22336 1-621; P26754 1-273; P26755 1-122); assay: as above
T3 construct: Rfa1, large subunit of yeast RPA; Rfa2, middle subunit of yeast RPA; Rfa3, small subunit of yeast RPA; GFP is fused to one subunit and kept in the assay (it is imaged); Coats the ssDNA of the DNA Curtains; also called RPA (green) on ssDNA; copies: + +
T3 sequence (P26754 whole entry, chain 2 of 2, the tested form may be a part): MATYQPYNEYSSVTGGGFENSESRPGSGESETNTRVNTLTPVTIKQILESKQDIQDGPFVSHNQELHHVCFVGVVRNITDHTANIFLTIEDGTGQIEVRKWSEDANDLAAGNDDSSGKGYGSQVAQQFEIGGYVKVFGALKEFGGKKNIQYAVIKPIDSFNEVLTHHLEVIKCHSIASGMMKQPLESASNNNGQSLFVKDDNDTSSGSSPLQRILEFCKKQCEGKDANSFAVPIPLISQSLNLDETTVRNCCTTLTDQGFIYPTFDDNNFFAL
T3 sequence (P26755 whole entry, chain 3 of 2, the tested form may be a part): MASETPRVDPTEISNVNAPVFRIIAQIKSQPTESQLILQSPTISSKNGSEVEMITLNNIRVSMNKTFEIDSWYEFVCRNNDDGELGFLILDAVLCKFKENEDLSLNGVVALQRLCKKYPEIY

Binder	binding result [1]	other results
B1	binds	–
B2	binds	–
B3	–	recruitment relative to wild-type RPA [2]: 80%
B4	–	fold less recruitment than wild-type Dna2 (RPA–GFP): ~2 fold
